For one test, the target named is T1, RAGE on human monocytes (human, UniProt Q15109 23-404).
T1 construct: whole, on cells
In words: proximity ligation assay on human monocytes, condition without C1q.

Test [1] concerns the target T2, Human recombinant RAGE (hrRAGE), soluble RAGE (human, UniProt Q15109 24-344, limits assumed).
T2 construct: Called soluble RAGE (sRAGE) in the SPR and bead experiments; also called sRAGE; Receptor for Advanced Glycation Endproducts
In words: SPR (data not shown).

In test [2] the target is T3, C1q purified from pooled normal human sera (human, UniProt P02746 28-253; P02747 29-245).
T3 construct: mature; Bought from Complement Technology, purified from serum; It names no B or C chains; Biotinylated for the bead assay; also called human C1q; first component of complement
T3 sequence (P02746 28-253, chain 2 of 2): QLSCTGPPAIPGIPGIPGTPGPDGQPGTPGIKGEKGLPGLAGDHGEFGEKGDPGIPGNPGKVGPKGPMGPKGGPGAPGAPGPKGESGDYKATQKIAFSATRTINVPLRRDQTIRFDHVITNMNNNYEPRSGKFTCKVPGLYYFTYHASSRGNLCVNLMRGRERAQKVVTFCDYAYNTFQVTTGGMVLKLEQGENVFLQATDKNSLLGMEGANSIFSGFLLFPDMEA
T3 sequence (P02747 29-245, chain 3 of 2): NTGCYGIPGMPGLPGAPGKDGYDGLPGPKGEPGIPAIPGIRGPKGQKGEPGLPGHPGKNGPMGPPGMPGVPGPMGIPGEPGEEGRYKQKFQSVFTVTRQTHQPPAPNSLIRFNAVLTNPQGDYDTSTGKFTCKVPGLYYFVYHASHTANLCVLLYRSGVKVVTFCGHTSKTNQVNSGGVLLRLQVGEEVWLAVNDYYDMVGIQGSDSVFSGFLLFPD
In words: SPR kinetics, C1q immobilised on a CM5 chip, HMGB1 redox form as analyte in a concentration series, 1:1 fit. The protocol:
A 1:1 mixture of N-hyrdoxysuccinimide and N-ethyl-N-(dimethyaminopropyl) carbodiimide was used to activate 2 flow-cells of the CM5 chip. […] The analyte (HMGB1) was diluted in 1× HBS-N+0.05% tween-20 buffer (filtered—0.22 um). Three redox states of HMGB1 were sequentially injected at a flow rate of 20 μl/min for 60 s at 25° C., the dissociation time was set for 3 minutes. […]
(In general: SPR reads the build-up and loss of mass on a sensor chip optically.)

The target in test [3] is T3, C1q purified from pooled normal human …. In words: SPR (BIAcore T200), HMGB1 immobilized on a CM5 chip, C1q as analyte at 5 concentrations, 1:1 fit. The protocol: Surface Plasmon Resonance analysis (SPR): For real-time binding interaction studies, a BIAcore T200 instrument (GE Healthcare) was used. […] A 1:1 mixture of N-hydroxysuccinimide and N-ethyl-N-(dimethyaminopropyl) carbodiimide was used to activate 2 flow-cells of the CM5 chip. […] The analytes were diluted in 1× PBS+0.01% (vol/vol) tween-20 buffer. The analytes were sequentially injected at a flow rate of 30 μl/min for 60 s at 25° C. The KD was determined using the BIAcore evaluation software 2.0 (GE Healthcare) supposing a 1:1 binding ratio.

T2 sequence (Q15109 24-344 limits assumed): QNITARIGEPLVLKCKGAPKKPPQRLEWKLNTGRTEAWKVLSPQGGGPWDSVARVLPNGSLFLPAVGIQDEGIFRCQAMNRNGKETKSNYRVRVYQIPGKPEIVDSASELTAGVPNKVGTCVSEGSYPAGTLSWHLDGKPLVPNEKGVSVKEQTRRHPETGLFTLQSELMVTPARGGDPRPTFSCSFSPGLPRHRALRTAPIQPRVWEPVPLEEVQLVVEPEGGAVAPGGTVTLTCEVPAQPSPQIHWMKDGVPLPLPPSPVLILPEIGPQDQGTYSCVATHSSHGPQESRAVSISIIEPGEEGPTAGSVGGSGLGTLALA
T1 sequence (Q15109 23-404): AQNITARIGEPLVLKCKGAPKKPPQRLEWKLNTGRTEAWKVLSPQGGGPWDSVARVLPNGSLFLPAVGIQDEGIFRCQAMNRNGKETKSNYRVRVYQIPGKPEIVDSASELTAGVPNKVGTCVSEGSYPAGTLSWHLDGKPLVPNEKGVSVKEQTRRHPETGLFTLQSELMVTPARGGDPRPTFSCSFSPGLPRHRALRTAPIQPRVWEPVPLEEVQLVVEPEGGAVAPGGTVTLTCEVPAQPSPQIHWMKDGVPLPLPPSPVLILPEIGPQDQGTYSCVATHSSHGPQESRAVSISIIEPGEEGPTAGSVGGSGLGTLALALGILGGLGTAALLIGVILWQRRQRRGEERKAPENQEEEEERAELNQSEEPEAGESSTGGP

B1: LAIR-1 on human monocytes (receptor, UniProt Q6GTX8 22-287, looked up)
chain: QEEDLPRPSISAEPGTVIPLGSHVTFVCRGPVGVQTFRLERDSRSTYNDTEDVSQASPSESEARFRIDSVREGNAGLYRCIYYKPPKWSEQSDYLELLVKESSGGPDSPDTEPGSSAGPTQRPSDNSHNEHAPASQGLKAEHLYILIGVSVVFLFCLLLLVLFCLHRQNQIKQGPPRSKDEEQKPQQRPDLAVDVLERTADKATVNGLPEKDRETDTSALAAGSSQEVTYAQLDHWALTQRTARAVSPQSTKPMAESITYAAVARH
notes: whole, on cells; also called Leukocyte-Associated Ig-like Receptor 1; CD305
Turning to B1, the binding result in the test with RAGE on human monocytes is reported as “no binding”.

B2: C1q tail (C1q collagen-like tail) purified from whole C1q (other)
chain 1: EDLCRAPDGKKGEAGRPGRRGRPGLKGEQGEPGAPGIRTGIQGLKGDQGEPGPSGNPGKVGYPGPSGPLGARGIPGIKGTKGSPGNI
chain 2: not shown
chain 3: not shown
notes: domain: collagen-like tail; Fragment prepared from whole serum C1q 'as previous described (22)'; also called C1q collagen tail
With B2, in test [1], the binding result is recorded as “no binding”.

B3: Disulfide HMGB1 (ligand, UniProt P09429 1-215, looked up)
chain: MGKGDPKKPRGKMSSYAFFVQTCREEHKKKHPDASVNFSEFSKKCSERWKTMSAKEKGKFEDMAKADKARYEREMKTYIPPKGETKKKFKDPNAPKRPPSAFFLFCSEYRPKIKGEHPGLSIGDVAKKLGEMWNNTAADDKQPYEKKAAKLKEKYEKDIAAYRAKGKPDAAKKGVVKAEKSKKKKEEEEDEEDEEDEEEEEDEEDEDEEEDDDDE
modifications: disulfide bond between C23 and C45, with a free cysteine at C106
notes: also called disulfide form of HMGB1
On to B3, for which the Kd (usually the free concentration of one partner at which half of the binding sites on the other are occupied at equilibrium, for simple one-to-one binding) in test [2] came out at 210 nM.

B4: All-thiol HMGB1 (ligand, not shown: small tags and cut ends)
chain: B3 chain
modifications: All-thiol form: C23, C45 and C106 all stand as free reduced thiols, with no C23-C45 disulfide. The letters are unchanged.
notes: Analyte in the SPR assays on immobilised C1q; also called reduced HMGB1
In test [2], B4 returned a Kd of 1060 nM.

B5: Recombinant HMGB1 (Calmodulin Binding Protein Epitope, Cbp tagged) (ligand, human, UniProt P09429 1-215, looked up, not shown: small tags and cut ends)
chain: B3 chain
notes: also called High Mobility Group Box 1
B5 returned a Kd in test [3] of 200 nM.

Source of the values: US20190169232A1 (FEINSTEIN INSTITUTES FOR MEDICAL RESEARCH, published 2019).
